The values that follow come from US20140079711A1.

For assay [1], the target named is CD147 N-domain (Asp19 to Asn117 of SEQ ID NO: 1) (human). Kind of assay: SPR (Biacore 3000), mAb captured by anti-mouse Fc, N-domain fragment injected.
For assay [2], the target named is CD147 Asp19-Asn117-Fc fusion protein (human) (UniProt P35613). Kind of assay: competition ELISA on coated CD147 Asp19-Asn117-Fc; competitor 2H3; 5F6 against labeled 2H3.
Assay [3] shares this target. The assay is described as follows: competition ELISA on coated CD147 Asp19-Asn117-Fc; competitor 2H3; 2C8 as competitor against 2H3 on coated CD147 Asp19-Asn117-Fc. (In general: ELISA stands for enzyme-linked immunosorbent assay.)
For assay [4] the target is unchanged. The assay is described as follows: competition ELISA on coated CD147 Asp19-Asn117-Fc; competitor 5F6; 2C8 as competitor against 5F6 on coated CD147 Asp19-Asn117-Fc.

B1: 5F6(mIgG1) (antibody, V domains shown)
VH: EMKLEESGGGLVQPGGSMKLSCVASGFTFSNYWMNWVRQSPEKGLEWVAQIRLKSYNYATHYAESVKGRFTISRDDSKSSVYLQMNNLRAEDTGIYYCTPDGSDYWGQGTTLTVSS
VL: SIVMTQTPKFLLVSAGDRVTITCKASQSVSNDVAWYQQKPGQSPKLLIYYASNRYTGVPDRFTGSGYGTDFTFTISTVQAEDLAVYFCQQDYSSPYTFGGGTKLEIK
Broadly, the Kd is the equilibrium constant for the complex coming apart. Read a high Kd as weaker binding. The term IC50 denotes the concentration needed to halve the response being measured. Take B1: the Kd in assay [1] came out at 0.46 nM. Further, the IC50 in assay [2] was found to be 1000 nM.

B2: 2C8(mIgG1) (antibody, V domains shown)
VH: EMKLEESGGGLVQPGGSMKLSCVASGFTFSNYRMNWVRQSPEKGLEWVAQIRLKSYNYATHYAESVKGRFTISRDDSKSSVYLQMNNLRAEDTGIYYCTPDGSDYWGQGTTLTVSS
VL: DILMTQSPSSMSVSLGDTVSITCHASQGISSSIGWLQQKPGKSFKGLIYHGTNLEDGVPSRFTGSGSGADYSLTISSLESEDFADYYCVQYAQFPYTFGGGTKLEIK
Consider B2, for which, in assay [1], the dissociation constant (Kd) amounted to 0.43 nM. The IC50 in assay [3] and in assay [4] was 30 nM in each case.
